Assay results as given in patent publication US20180155451A1 (published 2018).

B1: GpH7-A5/GpH7-B3 variant E269_02A/GpL16-k0 (antibody, human IgG1, kappa)
heavy 1: not shown
heavy 2: not shown
light: DIVMTQSPLSLPVTPGEPASISCQASESLVHSNRNTYLHWYLQKPGQSPQLLIYKVSNRFSGVPDRFSGSGSGTDFTLKISRVEAEDVGVYYCSQNTHVPPTFGQGTKVEIERTVAAPSVFIFPPSDEQLKSGTASVVCLLNNFYPREAKVQWKVDNALQSGNSQESVTEQDSKDSTYSLSSTLTLSKADYEKHKVYACEVTHQGLSSPVTKSFNRGEC
notes: heterodimerized; also called He Ab E269_02A
B2: GpH7-A5/GpH7-B3 variant E333_11K/GpL16-k0 (antibody, human IgG1, kappa)
heavy 1: not shown
heavy 2: not shown
light: B1 light
notes: heterodimerized; also called He Ab E333_11K
B3: GpH7-A5/GpH7-B3 variant A330_08L/GpL16-k0 (antibody, human IgG1, kappa)
heavy 1: not shown
heavy 2: not shown
light: B1 light
notes: heterodimerized; also called He Ab A330_08L; GpH7-A5/GpH7-B3-20-08L/GpL16-k0
B4: GpH7-A5/GpH7-B3 variant A330_09D/GpL16-k0 (antibody, human IgG1, kappa)
heavy 1: not shown
heavy 2: not shown
light: B1 light
notes: heterodimerized; also called He Ab A330_09D
B5: GpH7-A5/GpH7-B3 variant E269_07I/GpL16-k0 (antibody, human IgG1, kappa)
heavy 1: not shown
heavy 2: not shown
light: B1 light
notes: heterodimerized; also called He Ab E269_07I
B6: GpH7-A5/GpH7-B3 variant E333_03V/GpL16-k0 (antibody, human IgG1, kappa)
heavy 1: not shown
heavy 2: not shown
light: B1 light
notes: heterodimerized; also called He Ab E333_03V
B7: GpH7-A5/GpH7-B3 variant E269_09D/GpL16-k0 (antibody, human IgG1, kappa)
heavy 1: not shown
heavy 2: not shown
light: B1 light
notes: heterodimerized; also called He Ab E269_09D
B8: GpH7-A5/GpH7-B3 variant E269_14T/GpL16-k0 (antibody, human IgG1, kappa)
heavy 1: not shown
heavy 2: not shown
light: B1 light
notes: heterodimerized; also called He Ab E269_14T
B9: GpH7-A5/GpH7-B3 variant A327_10E/GpL16-k0 (antibody, human IgG1, kappa)
heavy 1: not shown
heavy 2: not shown
light: B1 light
notes: heterodimerized; also called He Ab A327_10E
B10: GpH7-A5/GpH7-B3 variant E333_05P/GpL16-k0 (antibody, human IgG1, kappa)
heavy 1: not shown
heavy 2: not shown
light: B1 light
notes: heterodimerized; also called He Ab E333_05P
B11: GpH7-A5/GpH7-B3 variant E269_15Y/GpL16-k0 (antibody, human IgG1, kappa)
heavy 1: not shown
heavy 2: not shown
light: B1 light
notes: heterodimerized; also called He Ab E269_15Y
B12: GpH7-A5/GpH7-B3 variant A327_13S/GpL16-k0 (antibody, human IgG1, kappa)
heavy 1: not shown
heavy 2: not shown
light: B1 light
notes: heterodimerized; also called He Ab A327_13S
B13: GpH7-A5/GpH7-B3 variant E333_09D/GpL16-k0 (antibody, human IgG1, kappa)
heavy 1: not shown
heavy 2: not shown
light: B1 light
notes: heterodimerized; also called He Ab E333_09D
B14: GpH7-A5/GpH7-B3 variant E269_01G/GpL16-k0 (antibody, human IgG1, kappa)
heavy 1: not shown
heavy 2: not shown
light: B1 light
notes: heterodimerized; also called He Ab E269_01G
B15: GpH7-A5/GpH7-B3 variant E269_06M/GpL16-k0 (antibody, human IgG1, kappa)
heavy 1: not shown
heavy 2: not shown
light: B1 light
notes: heterodimerized; also called He Ab E269_06M
B16: GpH7-A5/GpH7-B3 variant E333_07I/GpL16-k0 (antibody, human IgG1, kappa)
heavy 1: not shown
heavy 2: not shown
light: B1 light
notes: heterodimerized; also called He Ab E333_07I
B17: GpH7-A5/GpH7-B3 variant E333_02A/GpL16-k0 (antibody, human IgG1, kappa)
heavy 1: not shown
heavy 2: not shown
light: B1 light
notes: heterodimerized; also called He Ab E333_02A
B18: GpH7-A5/GpH7-B3 variant E333_04F/GpL16-k0 (antibody, human IgG1, kappa)
heavy 1: not shown
heavy 2: not shown
light: B1 light
notes: heterodimerized; also called He Ab E333_04F
B19: GpH7-A5/GpH7-B3 variant A330_05P/GpL16-k0 (antibody, human IgG1, kappa)
heavy 1: not shown
heavy 2: not shown
light: B1 light
notes: heterodimerized; also called He Ab A330_05P
B20: GpH7-A5/GpH7-B3 variant E269_16H/GpL16-k0 (antibody, human IgG1, kappa)
heavy 1: not shown
heavy 2: not shown
light: B1 light
notes: heterodimerized; also called He Ab E269_16H
B21: GpH7-A5/GpH7-B3 variant E269_18N/GpL16-k0 (antibody, human IgG1, kappa)
heavy 1: not shown
heavy 2: not shown
light: B1 light
notes: heterodimerized; also called He Ab E269_18N
B22: GpH7-A5/GpH7-B3 variant E333_01G/GpL16-k0 (antibody, human IgG1, kappa)
heavy 1: not shown
heavy 2: not shown
light: B1 light
notes: heterodimerized; also called He Ab E333_01G
B23: GpH7-A5/GpH7-B3 variant A327_06M/GpL16-k0 (antibody, human IgG1, kappa)
heavy 1: not shown
heavy 2: not shown
light: B1 light
notes: heterodimerized; also called He Ab A327_06M
B24: GpH7-A5/GpH7-B3 variant E269_19Q/GpL16-k0 (antibody, human IgG1, kappa)
heavy 1: not shown
heavy 2: not shown
light: B1 light
notes: heterodimerized; also called He Ab E269_19Q
B25: GpH7-A5/GpH7-B3 variant A327_03V/GpL16-k0 (antibody, human IgG1, kappa)
heavy 1: not shown
heavy 2: not shown
light: B1 light
notes: heterodimerized; also called He Ab A327_03V
B26: GpH7-A5/GpH7-B3 variant E269_03V/GpL16-k0 (antibody, human IgG1, kappa)
heavy 1: not shown
heavy 2: not shown
light: B1 light
notes: heterodimerized; also called He Ab E269_03V
B27: GpH7-A5/GpH7-B3 variant A330_16H/GpL16-k0 (antibody, human IgG1, kappa)
heavy 1: not shown
heavy 2: not shown
light: B1 light
notes: heterodimerized; also called He Ab A330_16H
B28: GpH7-A5/GpH7-B3 variant E269_05P/GpL16-k0 (antibody, human IgG1, kappa)
heavy 1: not shown
heavy 2: not shown
light: B1 light
notes: heterodimerized; also called He Ab E269_05P
B29: GpH7-A5/GpH7-B3 variant A330_11K/GpL16-k0 (antibody, human IgG1, kappa)
heavy 1: not shown
heavy 2: not shown
light: B1 light
notes: heterodimerized; also called He Ab A330_11K
B30: GpH7-A5/GpH7-B3 variant E269_08L/GpL16-k0 (antibody, human IgG1, kappa)
heavy 1: not shown
heavy 2: not shown
light: B1 light
notes: heterodimerized; also called He Ab E269_08L

What follows are binders tested against T1, FcγRIa (human, UniProt P12314 16-292) (assay: SPR; vs GpH7-A5/GpH7-B3/GpL16-k0=100).
T1 construct: extracellular domain; also called FcgRI; CD64
T1 sequence (P12314 16-292): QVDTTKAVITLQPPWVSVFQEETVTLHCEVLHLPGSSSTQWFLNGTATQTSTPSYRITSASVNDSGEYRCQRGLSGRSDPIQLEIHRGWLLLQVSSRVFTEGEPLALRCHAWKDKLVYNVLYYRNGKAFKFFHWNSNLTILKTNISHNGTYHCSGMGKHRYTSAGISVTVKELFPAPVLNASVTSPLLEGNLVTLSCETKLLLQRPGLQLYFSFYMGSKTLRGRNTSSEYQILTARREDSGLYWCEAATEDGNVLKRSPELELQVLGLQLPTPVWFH

Going from B1 to B2, the He/Con_1a falls from 104 % of control to 102 % of control.

Going from B3 to B4, the He/Con_1a rises from 107 % of control to 109 % of control.

First: B5
Second: B6
The He/Con_1a of the first is lower: 103 % of control for the first, 105 % of control for the second.

Compared with B7, B8 is lower in He/Con_1a: 107 % of control for the first, 106 % of control for the second.

Going from B9 to B10, the He/Con_1a falls from 103 % of control to 102 % of control.

Compared with B11, B12 is lower in He/Con_1a: 106 % of control for the first, 102 % of control for the second.

B13 and B14 are the same in He/Con_1a: 104 % of control for the first, 104 % of control for the second.

Compared with B15, B16 is lower in He/Con_1a: 104 % of control for the first, 102 % of control for the second.

First: B17
Second: B18
The He/Con_1a of the first is higher: 103 % of control for the first, 102 % of control for the second.

Going from B19 to B20, the He/Con_1a rises from 101 % of control to 106 % of control.

Going from B21 to B22, the He/Con_1a rises from 102 % of control to 103 % of control.

Going from B23 to B24, the He/Con_1a rises from 103 % of control to 105 % of control.

B25 and B26 are the same in He/Con_1a: 103 % of control for the first, 103 % of control for the second.

Going from B27 to B28, the He/Con_1a falls from 106 % of control to 102 % of control.

Compared with B29, B30 is higher in He/Con_1a: 103 % of control for the first, 104 % of control for the second.
